B1: Cholinesterase (Homo sapiens), P06276 (protein)
chain: MHSKVTIICIRFLFWFLLLCMLIGKSHTEDDIIIATKNGKVRGMNLTVFGGTVTAFLGIPYAQPPLGRLRFKKPQSLTKWSDIWNATKYANSCCQNIDQSFPGFHGSEMWNPNTDLSEDCLYLNVWIPAPKPKNATVLIWIYGGGFQTGTSSLHVYDGKFLARVERVIVVSMNYRVGALGFLALPGNPEAPGNMGLFDQQLALQWVQKNIAAFGGNPKSVTLFGESAGAASVSLHLLSPGSHSLFTRAILQSGSFNAPWAVTSLYEARNRTLNLAKLTGCSRENETEIIKCLRNKDPQEILLNEAFVVPYGTPLSVNFGPTVDGDFLTDMPDILLELGQFKKTQILVGVNKDEGTAFLVYGAPGFSKDNNSIITRKEFQEGLKIFFPGVSEFGKESILFHYTDWVDDQRPENYREALGDVVGDYNFICPALEFTKKFSEWGNNAFFYYFEHRSSKLPWPEWMGVMHGYEIEFVFGLPLERRDNYTKAEEILSRSIVKRWANFAKYGNPNETQNNSTSWPVFKSTEQKYLTLNTESTRIMTKLRAQQCRFWTSFFPKVLEMTGNIDEAEWEWKAGFHRWNNYMMDWKNQFNDYTSKKESCVGL
B2: Acetylcholinesterase (Homo sapiens), P22303 (protein)
chain: MRPPQCLLHTPSLASPLLLLLLWLLGGGVGAEGREDAELLVTVRGGRLRGIRLKTPGGPVSAFLGIPFAEPPMGPRRFLPPEPKQPWSGVVDATTFQSVCYQYVDTLYPGFEGTEMWNPNRELSEDCLYLNVWTPYPRPTSPTPVLVWIYGGGFYSGASSLDVYDGRFLVQAERTVLVSMNYRVGAFGFLALPGSREAPGNVGLLDQRLALQWVQENVAAFGGDPTSVTLFGESAGAASVGMHLLSPPSRGLFHRAVLQSGAPNGPWATVGMGEARRRATQLAHLVGCPPGGTGGNDTELVACLRTRPAQVLVNHEWHVLPQESVFRFSFVPVVDGDFLSDTPEALINAGDFHGLQVLVGVVKDEGSYFLVYGAPGFSKDNESLISRAEFLAGVRVGVPQVSDLAAEAVVLHYTDWLHPEDPARLREALSDVVGDHNVVCPVAQLAGRLAAQGARVYAYVFEHRASTLSWPLWMGVPHGYEIEFIFGIPLDPSRNYTAEEKIFAQRLMRYWANFARTGDPNEPRDPKAPQWPPYTAGAQQYVSLDLRPLEVRRGLRAQACAFWNRFLPKLLSATDTLDEAERQWKAEFHRWSSYMVHWKNQFDHYSKQDRCSDL

Experiments:
[1] = substrate: C#CCN(Cc1ccc2cccc(O)c2n1)C(C#N)CCC1CCN(Cc2ccccc2)CC1; conditions: Homo sapiens; HEK293; 20 nM
[2] = substrate: C#CCN(Cc1ccc2cccc(O)c2n1)C(C#N)CCC1CCN(Cc2ccccc2)CC1; conditions: Homo sapiens; HEK293; 50 nM
Description: Inhibition of human recombinant BuChE expressed in HEK293 cells using S-butyrylthiocholine iodide as substrate assessed as enzyme Km at 50 nM preincubated for 30 mins followed by substrate addition measured after 30 mins by Ellman's method

[3] = substrate: C#CCN(Cc1ccc2cccc(O)c2n1)C(C#N)CCC1CCN(Cc2ccccc2)CC1; conditions: Homo sapiens; HEK293; 100 nM
[4] = substrate: C#CCN(Cc1ccc2cccc(O)c2n1)C(C#N)CCC1CCN(Cc2ccccc2)CC1; conditions: Homo sapiens; HEK293; 200 nM
[5] = substrate: C#CCN(Cc1ccc2cccc(O)c2n1)C(C#N)CCC1CCN(Cc2ccccc2)CC1; conditions: Homo sapiens; HEK293; 20 nM; remark: listed apart in the source
[6] = substrate: C#CCN(Cc1ccc2cccc(O)c2n1)C(C#N)CCC1CCN(Cc2ccccc2)CC1; conditions: Homo sapiens; HEK293; 50 nM; remark: listed apart in the source
Description: Inhibition of human recombinant BuChE expressed in HEK293 cells using S-butyrylthiocholine iodide as substrate assessed as enzyme Vmax at 50 nM preincubated for 30 mins followed by substrate addition measured after 30 mins by Lineweaver-Burk plot analysis

[7] = substrate: C#CCN(Cc1ccc2cccc(O)c2n1)C(C#N)CCC1CCN(Cc2ccccc2)CC1; conditions: Homo sapiens; HEK293; 100 nM; remark: listed apart in the source
[8] = substrate: C#CCN(Cc1ccc2cccc(O)c2n1)C(C#N)CCC1CCN(Cc2ccccc2)CC1; conditions: Homo sapiens; HEK293; 200 nM; remark: listed apart in the source
[9] = substrate: C#CCN(Cc1ccc2cccc(O)c2n1)C(C#N)CCC1CCN(Cc2ccccc2)CC1; conditions: Homo sapiens; HEK293; 20 nM; remark: listed apart in the source
[10] = substrate: C#CCN(Cc1ccc2cccc(O)c2n1)C(C#N)CCC1CCN(Cc2ccccc2)CC1; conditions: Homo sapiens; HEK293; 50 nM; remark: listed apart in the source
Description: Inhibition of human recombinant AChE expressed in HEK293 cells using acetylthiocholine iodide as substrate assessed as enzyme Km at 50 nM preincubated for 30 mins followed by substrate addition measured after 30 mins by Lineweaver-Burk plot analysis

[11] = substrate: C#CCN(Cc1ccc2cccc(O)c2n1)C(C#N)CCC1CCN(Cc2ccccc2)CC1; conditions: Homo sapiens; HEK293; 100 nM; remark: listed apart in the source
[12] = substrate: C#CCN(Cc1ccc2cccc(O)c2n1)C(C#N)CCC1CCN(Cc2ccccc2)CC1; conditions: Homo sapiens; HEK293; 200 nM; remark: listed apart in the source
[13] = substrate: C#CCN(Cc1ccc2cccc(O)c2n1)C(C#N)CCC1CCN(Cc2ccccc2)CC1; conditions: Homo sapiens; HEK293; 20 nM; remark: listed apart in the source
[14] = substrate: C#CCN(Cc1ccc2cccc(O)c2n1)C(C#N)CCC1CCN(Cc2ccccc2)CC1; conditions: Homo sapiens; HEK293; 50 nM; remark: listed apart in the source
Description: Inhibition of human recombinant AChE expressed in HEK293 cells using acetylthiocholine iodide as substrate assessed as enzyme Vmax at 50 nM preincubated for 30 mins followed by substrate addition measured after 30 mins by Lineweaver-Burk plot analysis

[15] = substrate: C#CCN(Cc1ccc2cccc(O)c2n1)C(C#N)CCC1CCN(Cc2ccccc2)CC1; conditions: Homo sapiens; HEK293; 100 nM; remark: listed apart in the source
[16] = substrate: C#CCN(Cc1ccc2cccc(O)c2n1)C(C#N)CCC1CCN(Cc2ccccc2)CC1; conditions: Homo sapiens; HEK293; 200 nM; remark: listed apart in the source

Row | Protein | Km [1] [µM] | Km [2] [µM] | Km [3] [µM] | Km [4] [µM] | Vmax [5] [mAU/min] | Vmax [6] [mAU/min] | Vmax [7] [mAU/min] | Vmax [8] [mAU/min] | Km [9] [µM] | Km [10] [µM] | Km [11] [µM] | Km [12] [µM] | Vmax [13] [mAU/min] | Vmax [14] [mAU/min] | Vmax [15] [mAU/min] | Vmax [16] [mAU/min]
1 | B1 | 249 | 289 | 456 | 1240 | 108 | 101 | 87 | 83 | – | – | – | – | – | – | – | –
2 | B2 | – | – | – | – | – | – | – | – | 368 | 622 | 955 | 936 | 17.7 | 13 | 10.2 | 7.3

From ChEMBL document CHEMBL3861952, “Donepezil-like multifunctional agents: Design, synthesis, molecular modeling and biological evaluation” (Eur J Med Chem, 2016)
